Values of other authors in PMC9506339.
Read-outs that look alike come from different tables or passages of the source.

Legend:
[1] = molecular target: vitamin D-binding protein (UniProt P02774)
[2] = molecular target: vitamin D-binding protein (UniProt P02774); remark: listed apart in the source

Chain of UniProt P02774 (P02774 17-474): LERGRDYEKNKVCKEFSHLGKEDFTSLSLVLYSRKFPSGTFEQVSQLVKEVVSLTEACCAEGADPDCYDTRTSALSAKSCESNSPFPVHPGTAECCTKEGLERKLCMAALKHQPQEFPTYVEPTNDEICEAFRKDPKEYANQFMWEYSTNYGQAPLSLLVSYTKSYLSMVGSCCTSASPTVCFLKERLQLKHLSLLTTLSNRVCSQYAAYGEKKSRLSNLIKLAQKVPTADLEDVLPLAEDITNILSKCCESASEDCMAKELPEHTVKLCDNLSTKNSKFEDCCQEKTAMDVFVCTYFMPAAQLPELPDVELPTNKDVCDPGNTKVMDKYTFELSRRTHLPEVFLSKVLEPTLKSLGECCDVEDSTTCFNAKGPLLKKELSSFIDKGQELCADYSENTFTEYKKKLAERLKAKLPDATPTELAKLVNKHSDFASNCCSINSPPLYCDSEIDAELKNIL

Substance | Kd [1] [nM] | Kd [2] [nM]
cubilin (from UniProt O60494) | 110 | 
megalin (from UniProt P98164) |  | 120
